Key:
[1] = target: Ebola-Zaire-sGP: Soluble glycoprotein (sGP) released from infected cells (Ebola, species Zaire ebolavirus) (UniProt P60170)
[2] = target: Marburg-GP (Marburg)

Galanthus nivalis agglutinin (GNA), sequence (P30617 24-128 limits assumed): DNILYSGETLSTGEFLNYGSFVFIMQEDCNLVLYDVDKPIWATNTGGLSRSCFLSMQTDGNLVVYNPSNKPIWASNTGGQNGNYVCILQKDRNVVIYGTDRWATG
Ebola-Zaire-sGP: Soluble glycoprotein (sGP) released from infected cells (Ebola, species Zaire ebolavirus), sequence (P60170 33-324 limits assumed): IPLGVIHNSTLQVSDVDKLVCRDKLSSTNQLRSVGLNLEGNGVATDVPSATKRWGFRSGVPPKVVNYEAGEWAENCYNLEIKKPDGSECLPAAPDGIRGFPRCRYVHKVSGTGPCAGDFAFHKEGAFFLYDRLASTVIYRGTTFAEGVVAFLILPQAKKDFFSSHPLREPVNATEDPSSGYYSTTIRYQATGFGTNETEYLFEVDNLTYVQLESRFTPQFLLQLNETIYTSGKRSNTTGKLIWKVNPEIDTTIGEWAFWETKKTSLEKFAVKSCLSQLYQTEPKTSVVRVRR

Galanthus nivalis agglutinin (GNA) (from UniProt P30617 24-128)
% Removal at 6 hours [1]: 97%
% Removal (run of 3 hours) [2]: 60%
